T1: SPM-1 beta-lactamase (Pseudomonas aeruginosa, UniProt Q8G9Q0 29-276)
T1 sequence: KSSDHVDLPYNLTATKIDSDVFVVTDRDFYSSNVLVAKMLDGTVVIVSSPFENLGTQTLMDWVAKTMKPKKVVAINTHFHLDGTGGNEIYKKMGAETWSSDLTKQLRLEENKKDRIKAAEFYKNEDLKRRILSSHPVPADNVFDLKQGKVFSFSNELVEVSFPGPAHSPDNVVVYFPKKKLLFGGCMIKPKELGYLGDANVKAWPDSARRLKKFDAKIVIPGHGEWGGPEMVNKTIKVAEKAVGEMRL


How the values were obtained:
[1] = target: T1, SPM-1 beta-lactamase; assay: EMSA
[2] = target: IMP-1 beta-lactamase (UniProt P52699 19-246); assay: EMSA
[3] = target: NDM-1 beta-lactamase (UniProt C7C422 29-270); assay: EMSA
NDM-1 beta-lactamase, sequence (C7C422 29-270): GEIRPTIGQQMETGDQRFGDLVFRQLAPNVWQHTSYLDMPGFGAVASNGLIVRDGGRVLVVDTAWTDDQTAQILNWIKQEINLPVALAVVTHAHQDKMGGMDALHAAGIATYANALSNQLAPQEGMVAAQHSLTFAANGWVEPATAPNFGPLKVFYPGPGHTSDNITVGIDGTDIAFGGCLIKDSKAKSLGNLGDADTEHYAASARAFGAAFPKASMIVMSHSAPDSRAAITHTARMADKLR

[4] = target: VIM-1 beta-lactamase (UniProt A0A0F7KYQ8 21-266); assay: EMSA
[5] = target: T1, SPM-1 beta-lactamase; assay: NMR

IMP-1 beta-lactamase, sequence (P52699 19-246): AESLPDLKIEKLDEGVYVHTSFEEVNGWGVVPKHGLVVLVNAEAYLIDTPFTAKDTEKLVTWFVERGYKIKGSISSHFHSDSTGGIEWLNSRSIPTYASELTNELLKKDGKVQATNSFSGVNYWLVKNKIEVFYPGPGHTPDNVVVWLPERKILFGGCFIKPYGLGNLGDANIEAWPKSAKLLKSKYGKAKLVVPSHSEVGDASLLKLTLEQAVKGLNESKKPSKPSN

| Binder | binding result [1] | binding result [2] | binding result [3] | binding result [4] | binding result [5] |
| --- | --- | --- | --- | --- | --- |
| GGGAGAUGCUAGAGAUUCGGUGGGACACCCGUCUCCC (XNA, 2'-fluoro at all pyrimidines (C, U)) [S25 2'-FY] | binds | no binding | no binding | no binding |  |
| GGGAGAUGCUAGAGAUUCGGUGGGACACCCGUCUCCC (structured_RNA) [S25 RNA] |  |  |  |  | binds |
| GGGAGAUGCUAGAGAUUCGGUGGGACACCCUUCUCCC (structured_RNA) [S30 RNA (S25 G31U)] |  |  |  |  | binds |
